Measurements taken from the supplement of paper PMC7877785.
± gives the uncertainty stated by the source.

Experiment: self-splicing fitness, log relative to wild type (ln ratio); higher = more splicing; Tetrahymena group I intron in knt gene, E. coli kanamycin selection, DiMSum; sequences stand for … in CUCUCU…GGAGGGAAAAGUUAUCAGGCAUGCACCUGGUAGCUAGUCUUUAAACCAAUAGAUUGCAUCGGUUUAAAAGGCAAGACCGUCAAAUUGCGGGAAAGGGGUCAACAGCCGUUCAGUACCAAGUCUCAGGGGAAACUUUGAGAUGGCCUUGCAAAGGGUAUGGUAAUAAGCUGACGGACAUGGUCCUAACCACGCAGCCAAGUCCUAAGUCAACAGAUCUUCUGUUGAUAUGGAUGCAGUUCACAGACUAAAUGUCGGUCGGGGAAGAUGUAUUCUUCUCAUAAGAUAUAGUCGGACCUCUCCUUAAUGGGAGCUAGCGGAUGAAGUGAUGCAACACUGGAGCCGCUGGGAACUAAUUUGUAUGCGAAAGUAUAUUGAUUAGUUUUGGAGUACUCGUGGUCG
Method in brief: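 Pooled colonies went to amplicon sequencing on an Illumina HiSeq 2500 after six replicate transformations. The plates were LB agar with 100 μg/mL carbenicillin, 50 μM IPTG and 0.2% rhamnose, with or without 25 μg/mL kanamycin, incubated overnight at 37°C or 30°C. The E. coli BL21(DE3) library had all eight P1ex-region intron nucleotides randomised, the intron placed in the knt kanamycin-resistance gene on pET-22b(+). DiMSum fitness is the error-weighted combination of replicate fold changes, kanamycin against none, normalised to wild type.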

Sequence	self-splicing fitness (ln) (30 °C)	self-splicing fitness (ln) (37 °C)
AAGAAGCAAUAUUACGACGC	-0.655 ± 0.12	-0.0572 ± 0.17
AAGAAGCAAUAUUACGAGCA	-1.21 ± 0.12	-0.225 ± 0.1
AAGAAGCAAUAUUACGAGCC	-2.58 ± 0.2	-2.58 ± 0.29
AAGAAGCAAUAUUACGAUAU	-1.66 ± 0.11	-0.399 ± 0.12
AAGAAGCAAUAUUACGCAGG	-2.54 ± 0.14	-1.26 ± 0.14
AAGAAGCAAUAUUACGCAUG	-1.63 ± 0.13	-0.526 ± 0.13
AAGAAGCAAUAUUACGCGCC	-0.652 ± 0.13	-0.664 ± 0.2
AAGAAGCAAUAUUACGCUGG	-2.37 ± 0.2	-0.515 ± 0.2
AAGAAGCAAUAUUACGGAAA	-2.17 ± 0.19	-1.72 ± 0.2
AAGAAGCAAUAUUACGGACA	-1.66 ± 0.092	-0.389 ± 0.096
AAGAAGCAAUAUUACGGCGU	0.0118 ± 0.086	0.334 ± 0.11
AAGAAGCAAUAUUACGGGAU	-3.22 ± 0.22	-1.77 ± 0.18
AAGAAGCAAUAUUACGGGCC	-2.42 ± 0.22	-1.52 ± 0.21
AAGAAGCAAUAUUACGGGUG	-1.65 ± 0.072	-1.12 ± 0.086
AAGAAGCAAUAUUACGGUCG	-0.736 ± 0.073	-0.121 ± 0.1
AAGAAGCAAUAUUACGUAAG	-1.37 ± 0.069	-0.942 ± 0.083
AAGAAGCAAUAUUACGUGCU	-2.37 ± 0.087	-1.3 ± 0.082
AAGAAGCAAUAUUACGUGUA	-1.85 ± 0.11	-1.19 ± 0.092
AAGAAGCAAUAUUACGUUGU	-3.2 ± 0.1	-2.06 ± 0.11
AAGCAGCAAUAUUACGAAGC	-3.33 ± 0.29	-1.93 ± 0.27
AAGCAGCAAUAUUACGAGCG	-1.12 ± 0.11	-0.344 ± 0.14
AAGCAGCAAUAUUACGAGCU	-1.2 ± 0.079	-0.815 ± 0.083
AAGCAGCAAUAUUACGAUGC	-1.38 ± 0.11	-0.411 ± 0.13
AAGCAGCAAUAUUACGAUUA	-1.4 ± 0.077	-0.962 ± 0.066
AAGCAGCAAUAUUACGCCAC	-2.93 ± 0.22	-2.72 ± 0.29
AAGCAGCAAUAUUACGCCCC	-0.65 ± 0.15	-0.107 ± 0.19

Sequence	self-splicing fitness (ln) (30 °C)	self-splicing fitness (ln) (37 °C)
AAGCAGCAAUAUUACGCCGA	-1.64 ± 0.3	-1.61 ± 0.26
AAGCAGCAAUAUUACGCGAA	-1.77 ± 0.083	-1.2 ± 0.1
AAGCAGCAAUAUUACGCGAU	-3.31 ± 0.18	-3.25 ± 0.18
AAGCAGCAAUAUUACGCGGU	-3.08 ± 0.17	-2.55 ± 0.23
AAGCAGCAAUAUUACGCGUU	-2.2 ± 0.1	-1.99 ± 0.11
AAGCAGCAAUAUUACGCUCA	0.661 ± 0.12	-0.0809 ± 0.2
AAGCAGCAAUAUUACGGAAG	-3.51 ± 0.15	-1.35 ± 0.14
AAGCAGCAAUAUUACGGAGG	-3.79 ± 0.19	-2.53 ± 0.21
AAGCAGCAAUAUUACGGAUG	-3.17 ± 0.2	-2.57 ± 0.2
AAGCAGCAAUAUUACGGCAC	-0.574 ± 0.072	-0.149 ± 0.098
AAGCAGCAAUAUUACGGCAU	-0.221 ± 0.083	0.127 ± 0.1
AAGCAGCAAUAUUACGGCUU	-3.42 ± 0.14	-0.925 ± 0.12
AAGCAGCAAUAUUACGGGGG	-3.26 ± 0.22	-1.92 ± 0.16
AAGCAGCAAUAUUACGUAGG	-2.79 ± 0.096	-1.96 ± 0.13
AAGCAGCAAUAUUACGUAUG	-4.5 ± 0.26	-2.63 ± 0.17
AAGCAGCAAUAUUACGUGUU	-3.31 ± 0.1	-1.65 ± 0.089
AAGCAGCAAUAUUACGUUGU	-3.89 ± 0.12	-2.31 ± 0.11
AAGGAGCAAUAUUACGAACG		-0.373 ± 0.27
AAGGAGCAAUAUUACGAUAU	-3.03 ± 0.32	-2.37 ± 0.45
AAGGAGCAAUAUUACGCAAG	-1.2 ± 0.38	-1.45 ± 0.49
AAGGAGCAAUAUUACGCAGA		-2.56 ± 0.45
AAGGAGCAAUAUUACGCAUU	-2.8 ± 0.15	-1.64 ± 0.16
AAGGAGCAAUAUUACGCCAG	-2.29 ± 0.26	-3.1 ± 0.35
AAGGAGCAAUAUUACGGAGU	-3.24 ± 0.22	-1.33 ± 0.17
AAGGAGCAAUAUUACGGGAG	-4.8 ± 0.39	-2.24 ± 0.3
AAGGAGCAAUAUUACGGGCA	-1.9 ± 0.23	-1.2 ± 0.28

Sequence	self-splicing fitness (ln) (30 °C)	self-splicing fitness (ln) (37 °C)
AAGGAGCAAUAUUACGGGCC	-2.98 ± 0.37	-2.27 ± 0.45
AAGGAGCAAUAUUACGGGUA	-2.64 ± 0.24	-2.3 ± 0.46
AAGGAGCAAUAUUACGGGUU	-2.46 ± 0.23	-2.16 ± 0.28
AAGGAGCAAUAUUACGGUCU	-2.3 ± 0.15	-0.298 ± 0.12
AAGGAGCAAUAUUACGGUGA	-2.44 ± 0.21	-1.09 ± 0.2
AAGGAGCAAUAUUACGGUUC	-1.51 ± 0.17	-2.92 ± 0.35
AAGGAGCAAUAUUACGUAGU		-2.03 ± 0.27
AAGGAGCAAUAUUACGUCAG	-3.29 ± 0.41	-2.28 ± 0.45
AAGGAGCAAUAUUACGUCCU	-2.6 ± 0.25	-2.27 ± 0.31
AAGGAGCAAUAUUACGUGUC		-2.12 ± 0.32
AAGGAGCAAUAUUACGUGUU	-3.55 ± 0.14	-3.5 ± 0.24
AAGGAGCAAUAUUACGUUGA	-3.47 ± 0.23	-2.52 ± 0.19
AAGUAGCAAUAUUACGAAAC	-3.53 ± 0.27	-1.45 ± 0.29
AAGUAGCAAUAUUACGACAC	-0.538 ± 0.19	-0.726 ± 0.19
AAGUAGCAAUAUUACGACGU	-0.114 ± 0.059	0.403 ± 0.078
AAGUAGCAAUAUUACGAGGU	-1.94 ± 0.13	-1.97 ± 0.17
AAGUAGCAAUAUUACGAUCU	-0.032 ± 0.1	0.3 ± 0.13
AAGUAGCAAUAUUACGCAUA	-1.31 ± 0.15	-0.759 ± 0.15
AAGUAGCAAUAUUACGCCCA	-1.95 ± 0.35	0.232 ± 0.38
AAGUAGCAAUAUUACGCCCU	-0.145 ± 0.17	-0.639 ± 0.19
AAGUAGCAAUAUUACGCCUC	-1.63 ± 0.27	
AAGUAGCAAUAUUACGCGAC	-3.11 ± 0.31	-1.7 ± 0.36
AAGUAGCAAUAUUACGCGAU	-3.2 ± 0.16	-2.19 ± 0.15
AAGUAGCAAUAUUACGCGGC		0.207 ± 0.41
AAGUAGCAAUAUUACGGAGC	-3.21 ± 0.32	-1.35 ± 0.23
AAGUAGCAAUAUUACGGCGC	-0.0482 ± 0.11	0.221 ± 0.14
